The values below are quoted from earlier work in article PMC9772450, “Gel-forming antagonist provides a lasting effect on CGRP-induced vasodilation” (Frontiers in Pharmacology, 2022).

Series [1] deals with migraine. The following applies: 31% at baseline; 40–50% in the placebo group; ref Cady et al., 2022. An excerpt: Migraine is a common complex neurovascular disorder that is manifested as episodic and predominantly unilateral throbbing headache with hypersensitivity to light, sound, and movement ([Erdener and Dalkara, 2014]; [Schuster and Rapoport, 2016]). According to the World Health Organization, 324 million people worldwide suffer from incapacitating migraine in 2008. In ∼ one-third of patients, migraine headaches are accompanied by an aura involving neurological symptoms such as transient visual, sensory, or motor disturbances ([Goadsby et al., 2002]). In the US, it was reported that 15% of Americans ...

The conditions of series [2]: antibodies; ref https://go.drugbank.com/drugs.
Series [3] has as its system capsaicin-induced dermal blood flow. As to conditions: in patients; ref Vu et al., 2017. An excerpt: It is known that anti-CGRP gepants could occupy a binding site close to the interface of the N-terminal domains of CLR and RAMP1, and act by allosteric regulation ([Miller et al., 2010]). Although the gepants compounds have low IC50 values in receptor activation assays in vitro, it is well documented that gepants need high concentrations to bloc ...

B1: eptinezumab: anti-CGRP antibody (antibody, chains of the INN, looked up, V domains shown)
VH: EVQLVESGGGLVQPGGSLRLSCAVSGIDLSGYYMNWVRQAPGKGLEWVGVIGINGATYYASWAKGRFTISRDNSKTTVYLQMNSLRAEDTAVYFCARGDIWGQGTLVTVSS
VL: QVLTQSPSSLSASVGDRVTINCQASQSVYHNTYLAWYQQKPGKVPKQLIYDASTLASGVPSRFSGSGSGTDFTLTISSLQPEDVATYYCLGSYDCTNGDCFVFGGGTKVEIK
As to B1, the “Proportion of patients with moderate/maximal optimization at week four” value in series [1] is reported as 58%.

B2: erenumab: anti-CGRP receptor antibody (antibody, chains of the INN, looked up, V domains shown)
VH: QVQLVESGGGVVQPGRSLRLSCAASGFTFSSFGMHWVRQAPGKGLEWVAVISFDGSIKYSVDSVKGRFTISRDNSKNTLFLQMNSLRAEDTAVYYCARDRLNYYDSSGYYHYKYYGMAVWGQGTTVTVSS
VL: QSVLTQPPSVSAAPGQKVTISCSGSSSNIGNNYVSWYQQLPGTAPKLLIYDNNKRPSGIPDRFSGSKSGTSTTLGITGLQTGDEADYYCGTWDSRLSAVVFGGGTKLTVL
For B2, the Volume of distribution in series [2] is 3.86 L. In series [3], the “Concentration required for 50% inhibition of capsaicin-induced dermal blood flow” value is given as 0.255 mg/L and the “Concentration required for 99% inhibition of capsaicin-induced dermal blood flow” value is reported as 1.134 mg/L.

B3: galcanezumab: anti-CGRP antibody (antibody, chains of the INN, looked up, V domains shown)
VH: QVQLVQSGAEVKKPGSSVKVSCKASGYTFGNYWMQWVRQAPGQGLEWMGAIYEGTGKTVYIQKFADRVTITADKSTSTAYMELSSLRSEDTAVYYCARLSDYVSGFGYWGQGTTVTVSS
VL: DIQMTQSPSSLSASVGDRVTITCRASKDISKYLNWYQQKPGKAPKLLIYYTSGYHSGVPSRFSGSGSGTDFTLTISSLQPEDFATYYCQQGDALPPTFGGGTKVEIK
B3: in series [2], the Volume of distribution was 7.3 L.
